The values below come from publication PMC5788269, “Architecture of eukaryotic mRNA 3′-end processing machinery” (Science (New York, N.y.), 2017).

B1: Pfs2 (recombinant, polymerase module) (natural protein, yeast)
chain: MDGHNQNQYQNQNQIQQSQQPPLKKYVTQRRSVDVSSPYINLYYNRRHGLPNLVVEPETSYTIDIMPPNAYRGRDRVINLPSKFTHLSSNKVKHVIPAIQWTPEGRRLVVATYSGEFSLWNASSFTFETLMQAHDSAVTTMKYSHDSDWMISGDADGMIKIWQPNFSMVKEIDAAHTESIRDMAFSSNDSKFVTCSDDNILKIWNFSNGKQERVLSGHHWDVKSCDWHPEMGLIASASKDNLVKLWDPRSGNCISSILKFKHTVLKTRFQPTKGNLLMAISKDKSCRVFDIRYSMKELMCVRDETDYMTLEWHPINESMFTLACYDGSLKHFDLLQNLNEPILTIPYAHDKCITSLSYNPVGHIFATAAKDRTIRFWTRARPIDPNAYDDPTYNNKKINGWFFGINNDINAVREKSEFGAAPPPPATLEPHALPNMNGFINKKPRQEIPGIDSNIKSSTLPGLSI
notes: Pfs2, yeast; ordered in the cryo-EM map: residues 27 to 411; source: overexpressed in insect cells, purified as part of the polymerase module
B2: Fip1 (recombinant, polymerase module) (natural protein, yeast, UniProt P45976 1-327, looked up)
chain: MSSSEDEDDKFLYGSDSELALPSSKRSRDDEADAGASSNPDIVKRQKFDSPVEETPATARDDRSDEDIYSDSSDDDSDSDLEVIISLGPDPTRLDAKLLDSYSTAATSSSKDVISVATDVSNTITKTSDERLITEGEANQGVTATTVKATESDGNVPKAMTGSIDLDKEGIFDSVGITTIDPEVLKEKPWRQPGANLSDYFNYGFNEFTWMEYLHRQEKLQQDYNPRRILMGLLSLQQQGKLNSANDTDSNLGNIIDNNNNVNNANMSNLNSNMGNSMSGTPNPPAPPMHPSFPPLPMFGSFPPFPMPGMMPPMNQQPNQNQNQNSK
notes: Fip1, yeast; present in the four-subunit complex but not visible in the cryo-EM map; source: overexpressed in insect cells, purified as part of the polymerase module
B3: Pap1 (recombinant, polymerase module) (enzyme, yeast, UniProt P29468 1-568, looked up)
chain: MSSQKVFGITGPVSTVGATAAENKLNDSLIQELKKEGSFETEQETANRVQVLKILQELAQRFVYEVSKKKNMSDGMARDAGGKIFTYGSYRLGVHGPGSDIDTLVVVPKHVTREDFFTVFDSLLRERKELDEIAPVPDAFVPIIKIKFSGISIDLICARLDQPQVPLSLTLSDKNLLRNLDEKDLRALNGTRVTDEILELVPKPNVFRIALRAIKLWAQRRAVYANIFGFPGGVAWAMLVARICQLYPNACSAVILNRFFIILSEWNWPQPVILKPIEDGPLQVRVWNPKIYAQDRSHRMPVITPAYPSMCATHNITESTKKVILQEFVRGVQITNDIFSNKKSWANLFEKNDFFFRYKFYLEITAYTRGSDEQHLKWSGLVESKVRLLVMKLEVLAGIKIAHPFTKPFESSYCCPTEDDYEMIQDKYGSHKTETALNALKLVTDENKEEESIKDAPKAYLSTMYIGLDFNIENKKEKVDIHIPCTEFVNLCRSFNEDYGDHKVFNLALRFVKGYDLPDEVFDENEKRPSKKSKRKNLDARHETVKRSKSDAASGDNINGTTAAVDVN
notes: Pap1 poly(A) polymerase, yeast; source: overexpressed in insect cells, purified as part of the polymerase module

Conditions in all cases: both partners purified
Assay [1] addresses T1, Cft1 (recombinant, polymerase module) (yeast, UniProt Q06632 1-1357).
T1 construct: Cft1, yeast; ordered in the cryo-EM map: residues 1 to 1357 (several loops not visible); source: overexpressed in insect cells, purified as part of the polymerase module
T1 sequence: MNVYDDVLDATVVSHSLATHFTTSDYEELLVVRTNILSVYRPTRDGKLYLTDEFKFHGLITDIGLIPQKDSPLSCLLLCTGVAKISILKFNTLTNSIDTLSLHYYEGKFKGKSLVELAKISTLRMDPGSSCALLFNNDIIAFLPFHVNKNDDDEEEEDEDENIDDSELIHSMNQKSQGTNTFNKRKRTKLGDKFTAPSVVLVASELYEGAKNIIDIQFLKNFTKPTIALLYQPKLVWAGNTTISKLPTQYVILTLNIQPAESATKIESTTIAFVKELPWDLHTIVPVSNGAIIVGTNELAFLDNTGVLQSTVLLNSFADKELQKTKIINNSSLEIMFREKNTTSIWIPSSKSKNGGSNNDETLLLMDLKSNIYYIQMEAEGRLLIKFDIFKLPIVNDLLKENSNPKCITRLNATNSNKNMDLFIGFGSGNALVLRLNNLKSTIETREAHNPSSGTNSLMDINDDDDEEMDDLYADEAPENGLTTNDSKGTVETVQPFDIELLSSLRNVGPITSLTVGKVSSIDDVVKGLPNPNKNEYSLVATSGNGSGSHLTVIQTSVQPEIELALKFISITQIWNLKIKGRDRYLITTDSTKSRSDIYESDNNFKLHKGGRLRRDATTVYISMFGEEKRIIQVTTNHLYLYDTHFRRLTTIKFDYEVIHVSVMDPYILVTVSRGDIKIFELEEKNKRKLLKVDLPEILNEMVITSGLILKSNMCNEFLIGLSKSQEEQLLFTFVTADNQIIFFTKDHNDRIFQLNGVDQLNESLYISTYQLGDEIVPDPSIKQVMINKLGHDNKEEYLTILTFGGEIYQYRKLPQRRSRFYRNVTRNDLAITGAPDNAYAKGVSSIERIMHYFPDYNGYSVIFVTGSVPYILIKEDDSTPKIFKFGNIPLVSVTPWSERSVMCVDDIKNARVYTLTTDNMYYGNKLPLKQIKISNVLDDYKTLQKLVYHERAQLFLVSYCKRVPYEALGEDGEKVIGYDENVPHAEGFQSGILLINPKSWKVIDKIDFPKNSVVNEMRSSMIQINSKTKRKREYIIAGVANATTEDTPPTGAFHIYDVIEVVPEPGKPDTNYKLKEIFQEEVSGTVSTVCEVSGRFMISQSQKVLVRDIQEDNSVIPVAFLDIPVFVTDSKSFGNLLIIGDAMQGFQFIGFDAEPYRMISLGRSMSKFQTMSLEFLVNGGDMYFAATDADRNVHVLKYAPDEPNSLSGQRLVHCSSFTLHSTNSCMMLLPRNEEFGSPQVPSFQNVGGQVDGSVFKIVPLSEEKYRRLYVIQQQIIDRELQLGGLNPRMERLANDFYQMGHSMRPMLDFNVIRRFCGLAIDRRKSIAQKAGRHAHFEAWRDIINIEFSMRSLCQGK
The assay is described as follows: cryo-EM structure; recombinant four-subunit complex (Cft1, Pfs2, Yth1, Fip1) overexpressed in insect cells; overall resolution 3.5 Å.

Assay [2] has as its target B3. As to the kind of experiment: cross-linking; cross-linking mass spectrometry of the polymerase module, to determine where Pap1 and Fip1 bind.
Assay [3] deals with T1, Cft1 (recombinant, polymerase module). Described as above.
Assay [4] concerns the target B1. The assay is described as follows: cryo-EM structure; recombinant four-subunit complex (Cft1, Pfs2, Yth1, Fip1) overexpressed in insect cells; overall resolution 3.5 Å.
For assay [5], the target named is B2. As to the kind of experiment: cross-linking; cross-linking mass spectrometry of the polymerase module, to determine where Pap1 and Fip1 bind.

B1: the binding result in assay [1] and in assay [2] was “binds” in each case.
With B2, the binding result in assay [2] was “binds”.
For B3, the binding result in assay [3] is listed as “binds”.

B4: Yth1 (recombinant, polymerase module) (natural protein, yeast)
chain: SLIHPDTAKYPFKFEPFLRQEYSFSLDPDRPICEFYNSREGPKSCPRGPLCPKKHVLPIFQNKIVCRHWLRGLCKKNDQCEYLHEYNLRKMPECVFFSKNGYCTQSPDCQYLHIDPASKIPKCENYEMGFCPLGSSCPRRHIKKVFCQRYMTGFCPLGKDECDMEHPQFIIPDEGSKLRIKRDDEINTRKMDEEKERRLNAIINGEV
notes: Yth1, yeast; ordered in the cryo-EM map: residues 1 to 94; zinc fingers 3 to 5 (residues 95 to 208) not visible; source: overexpressed in insect cells, purified as part of the polymerase module
As to B4, the binding result in assay [1], in assay [4], in assay [5] and in assay [2] was “binds” in each case.
